Laboratory results reported in a protein production outcome set (Wang et al. 2014).

Assay: label from the status in PepcDB records
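Further: failed if final PepcDB status was selected cloned or expressed and not failed if soluble or beyond.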

Row | Sequence | protein production
1 | MWIVLWPGLTGLPDSLVLLARVGGCSVLYDTGSGEPGSIVALAANLASAGVKPWSINVAIVSHAHVPSSGGARWLHDNHRVTIAARRPDSRWIEEGDPVKTAAVDYGLPTKPVPIGLELEREGRMPGECEGVEVLFTPGHTPGSVSVSLDTGDATVLAVSDALGRLKRDWGSSEREWMESLDKISSRDPDYLCTSVTCMDRRAAKAFLDEIREKGPVWDVENSSGDGPG | failed
2 | MLLENFYKIIHIKEREDGKQEIEIELNPGHVLYQGHFPGQPVVPGVCTLQIIKESAEQIASQPLQYVQIASSKFLSAINPLETPLLQLFIRLEKTEEHLFKLQAEGICNGKEFIKLKAVLMASKYQLEHHHHHH | not failed
3 | MSSRTRARGSKRAAGVHTVSIPRQRGRRRAQPFVIVFPESPSLTREALGFIGRALWKGRRALAPTALALLAFAVTGLLHVMAWWSSLILAPLAAGPLVWLAVMQVRRPGRGAVVLWRAGLALLATFTAAWAALAAGFGPLAGPLDLVWLLMWIAAQTAWLFVRRSH | failed
4 | MDPAEMRYLEEEDGPLMKTIKGSITGFGAGTIYGTILATWKDVPRVERNVALPGLIRTLKMMGTHGLTFAAIGGVYIGVEQLVQNFRSKRDFYNGAIGGFVAGASVLGYRARSIPTAIAAGATLAVTSALIDSGGQTTRVDNGREYYPYTVEKRAEADS | not failed
5 | MIEESVMLRQHNLRLRKYDYVLGRLFVALPIGGLVVAVLLLFADWRVGRFELAMCLAMYLFTMMGIEVGFHRCFAHRAFKAGTGLQWVLAVAGSMGGHGPLIWWVTTHRRHHRFVDTDQDPHTPNKDLRGPWRNFKSFLYGYVGWTMDTDVKLQEGWQRYGVDLYKNSILFKVHARFALIALLGLLLPTVAGALFHRTAEGALLGLLWGGLVPICLTQHLFWMINAFGHRIGAKPFSGRIVGDSRNCWWLALPTFGQGWHNNHHADPGCATTRKTWWQLDPGAWLIRLFERLGWASAVKWK | failed
6 | MTRIAIALAQDFADWEPALLAAAARSYLGVEIVHATPDGMPVTSMGGLKVTPDTSYDALDPVDIDALVIPGGLSWEKGTAADLGGLVKRFRDRDRLVAGICAAASALGGTGVLNDVAHTGNALASHKAYPAYRGEAHYRDQPRAVSDGGVVTAAGSAPVSFAVEILKSLGLFGPEAEAELQIFAAEHR | not failed
7 | DIENSPIKDDNSIIEIFSYGCHYCAINEDNVSQLENRMPEGTRFIRLHISSDKTTGLGRFAPVFATLSVMGIEPQHRQSAYKAVLDDNSDLSDNRQLETWLKANDIDVAKYQQVSQSAEVKALISYMTAVTAHYKIDATPTFIVGKKWIALQDREFPAFSDHLLSLLEHD | failed
8 | SYETSQHNLDAVEAVLSRLQKQTGEMAAYMVPVGYRALCVSQRESMQALRCSFVQGQSQPLLRGASSKVMLAYMPAARCEKILRYFGEDPTLDKWQSEFEKIRRHGYAVSTSEIDPGVSGISAPVMKGSKLIGAISVMAPAHRVESNKQRIILHVLQAARAL | not failed
9 | MADLTDALIDAALERGRSAHANEPRAAKARYDRSSARVIVDLENGCTFAFPPRLAQGLEGASDDQLCAVEILGQGYGLHWETLDVDLSLPGLMAGIFGTKAWMAKRAEPPPSAAKDAWSNLPR | not failed
10 | MSLDCRERIEKDLELLEKNLMEMKSIKLSDDEEAVVERALNYRDDSVYYLEKGDHITSFGCITYAHGLLDSLRMLHRIIEGHHHHHH | not failed
11 | MYNSRESILSNPVQSAIVSISFFSVVAIIIIAIYPEILSPQRKMERIDDFVVIIATLTFLFIGLSLINSFGTDNMEYTYEALNNFFQGKNPYEMVYGPHTVQPTYTLSGGVASNFIYPPFSFIVYIPIYLLIKAFNLPGYVLNAENVIFAVILGLLLYKIGKEKDDPFALFPVIFLYIITAVSIPPFYGVPIVIASTFLALSYVKKNYLGGISLALAISFSQLSWLAFPFLLIYRIRSDNVGKQFLRSSYFLSFLITLSIINIPFLAWNPVRFIGNIITLNTQLIPVGQIGLTVISYSGLYPMEPWFFTIVFGVVAIFLTYLYYQLFDYLKEIIWLFPLIISWFLWRTLTEYFFMWIPLIFTSLFRTQYKLPTIKLNFKKKIVLPLLIIFVFLASLSVYAHESYVASNPLKIDEVYTLQNTPPYTALIIKVQNTKNEPVNITLVRVSIPNNLNMVWNSTETVIPPNSSALVFAYASNSLEAINSTPFTVQVYSEYYFATYTVNSTQ | failed
12 | LLSLALAALMEDVHAHSGAVYLLAPDEPVLEMAVMAGLPRAFAAPWERVGLSAPLPVAEAVRERRLVWVNGEEQMAGRYPRVAVVLPYSFALAALPLACADTVYGALFVTWPDSHPPELSSRERDQLGVACDRLATRLAHA | failed
13 | MLGSQCAASEPVPAHSLWRGQDMSPNMRGALLMTGSMAAFTCNDTVVKLLGSEMPLFQILVLRSGLSAVWIYFLARRLGALHLRFGRRDRMLVALRCLSEIGATYFFLTALLNMPLANVTAVLQMLPLTVTLGAALFFGEQVGWRRMLAIGLGFCGMLLIVRPGPDGFTLHAIYAMAAVICVTARDLVTRRMSSHVPSLTVTLATALSVMSFGLVGSLTVDWVPLTTDLGLGLLAASLLVLGGYLFSVMVMRIGEVGFVAPFRYSSLLWALVLGWLVFGDWPDPLTMAGVALVVATGLFTLFRERASRHRG | failed
14 | MITLAVRLKNLAFLLIAVLALSFLGIRYADLGRYVGVADYYTVDVHLPRTGGLFTHSDVTYRGVSVGRVGPIDLTAEGVVAELRIKKSAPRIPADTKAVVAGLSAVGEQYIDLRPESDGSPYLADGTRIEQADTEVPAPVTDVLTSVDDLASSVPLEDLRTVVDEFGKAFDGHGDDLQVLLDSGSDFVEAADRALPSTTLLINDGETVLRTQAQEARAIRDFAVGAKDLAAALKGSDADLRRLLAVTPEAATQVSGLLRDLDPSLGVVLANLLTTSEVAVTRQRGIEELLVKYPAAVSAGATAVDGGKLDLGLAVTFFSPLPCTDGYGGTRYRNGLDLGTAPALNTDAACTAPASGGKNVRGSANAPKSGAVPDPATPGSLPSGGGRTTPAGGGSPARDGSTALPGALALPGQSGEAPAGLTGLLAPAAGGARLEHHHHHH | failed
15 | MHRLRAAETGDIEAMTDLLLRHGPNPWNHLPEEGVRAHLRAIADGEVRAVLAERDDRLLGFASFRRTEDFAHYQPQRADAPRAYICEAVVHPAAAGQGLGSALLEAVLAQLADEGIEDVYIDRHEENLASAGMMRKAGFVELETYADPARRPNGSGRSTVCHRNLSLQRRAVR | failed
16 | MHCRIRNTISCSNYIFSAVWNFLISVFINKTNFNNSVYCRIFKVSIGLRKSISSTTRTRWVPVVFICSRSTNRWTGARSVNPIRNLEHHHHHH | failed
17 | MEPKDTTTNDAFKGFTNTACPFLPCHKGVKREFNCLFCYCPLIAYECPGPYQVYTDKNGLTRKDCTNCTLPHDGYLASWNFIQKWLERPVIWSGAAQTTPPTRRPGRAPGDGDEELEHHHHHH | not failed
18 | MTESDRDQEASMREVVIVKSTPQRGKFNAFAELVGKLVSETRDFPGCLGAYLMLAPERNEQVVMHIWETPDALEAYLTWRADRGDFLEINEYLEVEQDFKTYQLA | not failed
19 | MDDIFTQCREGNAVAVRLWLDNTENDLNQGDDHGFSPLHWACREGRSAVVEMLIMRGARINVMNRGDDTPLHLAASHGHRDIVQKLLQYKADINAVNEHGNVPLHYACFWGQDQVAEDLVANGALVSICNKYGEMPVDKAKAPLRELLRERAEKMGQNLNRIPYKDTFWKGTTRTRPRNGTLNKHSGIDFKQLNFLTKLNENHSGELWKGRWQGNDIVVKVLKVRDWSTRKSRDFNEECPRLRIFSHPNVLPVLGACQSPPAPHPTLITHWMPYGSLYNVLHEGTNFVVDQSQAVKFALDMARGMAFLHTLEPLIPRHALNSRSVMIDEDMTARISMADVKFSFQCPGRMYAPAWVAPEALQKKPEDTNRRSADMWSFAVLLWELVTREVPFADLSNMEIGMKVALEGLRPTIPPGISPHVCKLMKICMNEDPAKRPKFDMIVPILEKMQDK | failed
20 | MTPNRRPRPSGAEVRRKIRGPDGLALLPSGRVSWLPDDFVHPVLVPLPGGDHHLRPIRETDTPLDYPAVMGSRERLWTVYGPAWGWPAATMTYEADRADLLRHEKEIAAHQSFNYALFDTAETALLGCVYIDPPERAGADGDISWWVVDELVDSTVERALDALVPQWIAADWPFERPRFIGREISWSDYLALPGIPTVP | failed
21 | MLVTKLAPDFKAPAVLGNNEVDEHFELSKNLGKNGAILFFWPKDFTFVCPTEIIAFDKRVKDFQEKGFNVIGVSIDSEQVHFAWKNTPVEKGGIGQVTFPMVADITKSISRDYDVLFEEAIALRGAFLIDKNMKVRHAVINDLPLGRNADEMLRMVDALLHFEEHGEVCPAGWRKGDKGMKATHQGVAEYLKENSIKL | failed
22 | MVEAPPPELRILSAGDSSYSGSGWSRVPHVWLRDEIRLSGEPRVRQGKREGDRRFRGRGRDRGRWHLGCPRKALFSNLLGTVYRCGNLNFSRDGNSVISPVGNRVTVFDLKNNRSDTLPLATKYNIKCVGLSPDGRLAIIVDEGGAALLVSLVCRSVLHHFHFKGSVHSVSFSPDGRKFVITKGNIAQMYHAPGKKREFNAFVLDKTYFGPYDETTCIDWTDDSKCFVVGSKDMSTWVFGAERWDNLIYYALSGHKDAIVACFFESNSLDLYSLSQDGALCVWQCDTPPEGLRLKAPRGWKADILQREKEEEEEEDEEGEGNRETTIRGKAVPAEQERVGKVKYSRLAKYFLNKEGDFNNLTAAAYHKKTHLLVTGFASGIFHLHELPEFNLIHSLSISDQRVASVAINSSGDWIAFGCSGLGQLLVWEWQSESYVLKQQGHFNSMVALAYSPDGQYIVTGGDDGKVKVWNTLSGFCFVTLTEHSSGVTGVTFTATGHVIVTSSLDGTVRAYDLHRYRNFRTFTSPRPTQFSCVAVDSSGEIVSAGAQDSFEIFVWSMQTGRLLDVLSGHEGPISGLCFNPMKSILASASWDKTVRLWDMFDSWRTKETLSLTSDVLAVTYRPDGAELAVATLNSQITFWDPENAVQVGSIEGRHDLKTGRKELDKITAKHSAKGKAFTTVCYSADGQNILAGGMSKFVCLYHVREQILVKRFELSCNFSLDAMEEFLNRRKMTEFGNLALIDQDAGEENGVAIPLPGVRKGDMSSRHFKPEIRVTSLRFSPTGRCWAATSTEGLLIFSLDAQMLFDPFELDTSVTPGRIREALRQREFTRAILMAFRLNEKKLAQEALEAVPQNEIEVVSASLPELYVVKVLEFLAASFEESRHLEFYLIWTQKLLMSHGQRLKSRAGQLLPVVQFLQKGLQRHLDDISKLCDWNRYNIQYALAVSKQRGMKRTLEPVDTEEDTDASDEDSLHLLRAAEEEEEGMLV | failed
23 | QPTGTMTTDSKLTSKESALALTNSAYLKNTVFNKMTPGWGCNTILLLEYMTGKATSENSQSNYKDFQDLLVSDRSLYIEDWWQDCYAGIANCNLALQKLGEFENLDASLVNGYMAEVKFMRALYYFYLVRIFGDVPKITTVQSELGELQVSRAPVKEIYDEIIIPDLLEAEQSDLAFSDHTGRVSMGAVKALLADVYLTYAGYPLQGGKSYYAESAKRSLEVIKSNEYTLFTDYESLRLPSQNNKGEFIYQVQFSLNKRHNESVRIFLPSRSGISAYDLEYGSLIPTKEFVESFEKGDKRTEEKQYFFTNYKGHPSKFSPGAAELEFMDLNGYYIYKFFDQVAVDNTAKSDLNWSVYRYTDVLLMYAEAQVNADGTPNQQSIDIVNQIRGRAGLAPFKQTNASAFLEEVWDQRYFDLCYENKMWFDMLRTRKIRDDKSGEYVDFIGYKTNWGKVYTETQLLFPIPLSERQANPNLTQNQGY | not failed
24 | MILIRLEPGMDLMEEMRAAFSEGVVVTGIGSLHRVRIRTADESELTVEGPLEILSLQGTISPDGVHIHIAVADSEGRVTGGHLRGDSPVRTTAEIAVIPYQGVLRRVMDRRTGYRELLVLE | failed
